The numbers were not newly measured in patent US20130079279A1, “PHARMACEUTICAL COMPOSITION COMPRISING AVE0010 AND INSULIN GLARGINE” (SANOFI-AVENTIS DEUTSCHLAND GMBH, priority 2010, published 2013), which cites them from elsewhere.

This series relates to anti-lixisenatide antibodies. The following applies: previous study ACT6011; end of a two week period after repeated injections.

As for “desPro^36Exendin-4(1-39)-Lys6-NH2 [lixisenatide]”, the Anti-lixisenatide antibodies result is given as “not detected”.
